We go through six molecules from patent US20210079343, “ENDOTHELIAL CELL FACTORS AND METHODS THEREOF” (THE CHILDREN'S MEDICAL CENTER CORPORATION, published 2021).

To fix the notation:
T1: NR2F2 (COUP-TFII) (Mus musculus, UniProt P43135 P43135:1-414)
T1 sequence: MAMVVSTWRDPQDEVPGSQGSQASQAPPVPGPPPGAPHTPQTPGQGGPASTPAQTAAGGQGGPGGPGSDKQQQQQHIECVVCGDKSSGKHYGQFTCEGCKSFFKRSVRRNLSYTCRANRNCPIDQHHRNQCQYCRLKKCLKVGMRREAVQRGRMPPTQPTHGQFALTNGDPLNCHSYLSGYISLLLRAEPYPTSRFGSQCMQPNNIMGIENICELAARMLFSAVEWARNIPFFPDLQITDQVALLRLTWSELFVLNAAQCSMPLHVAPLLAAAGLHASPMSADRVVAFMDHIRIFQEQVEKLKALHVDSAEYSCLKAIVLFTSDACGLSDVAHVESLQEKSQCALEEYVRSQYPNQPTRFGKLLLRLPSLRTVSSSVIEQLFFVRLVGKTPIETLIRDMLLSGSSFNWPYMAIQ

B1: sele wild-type (dsDNA)
DNA 1: GTAATGCCCCCTGTGACCCATATTGTCTCGCTCTTTCCTTTATA
DNA 2: TATAAAGGAAAGAGCGAGACAATATGGGTCACAGGGGGCATTAC
B2: mrc1a site 1 wild-type (dsDNA)
DNA 1: TTTATGAAGCTTGTACCTTTCATTTCCTTTTTG
DNA 2: CAAAAAGGAAATGAAAGGTACAAGCTTCATAAA
B3: mrc1a site 2 wild-type (dsDNA)
DNA 1: TTCATTTCCTTTTTGCTGAGCTTTATTTTC
DNA 2: GAAAATAAAGCTCAGCAAAAAGGAAATGAA
B4: mrc1a site 2 mutation (dsDNA)
DNA 1: TTCATTTCCTTTTTGCATTAATTTATTTTC
DNA 2: GAAAATAAATTAATGCAAAAAGGAAATGAA
B5: mrc1a site 1 mutation (dsDNA)
DNA 1: TTTAATTAGCAGATTTAATTTCATTTCCTTTTTG
DNA 2: CAAAAAGGAAATGAAATTAAATCTGCTAATTAAA
B6: sele mutation (dsDNA)
DNA 1: GTAATGCCCCCTGATTAACATATTGTCTCGCTCTTTCCTTTATA
DNA 2: TATAAAGGAAAGAGCGAGACAATATGTTAATCAGGGGGCATTAC

The target in the first data set is T1, NR2F2 (COUP-TFII). Nature of the data set: EMSA; 4 C, 20 mM Tris pH 8.0, 10 mM KCl, 20% glycerol; super-shifted by anti-NR2F2; outcompeted by unlabeled wild-type probe. As to conditions: tags: GST (pGEX2TK, E. coli BL21). From the text:
(§1) In each case, disruption of the Ets, SoxF or NHR motifs led to a significant reduction or complete loss of GFP expression in CHT ECs (see e.g., FIG. 3F). In control constructs where mutations were targeted to intervening sequences between the Ets, SoxF and NHR motifs, GFP expression was unperturbed (see e.g., FIG. 3F). Studies of arterial-venous specification in zebrafish have shown that the NHR Nr2f2, also known as COUP-TFII, promotes venous endothelial cell fate (see e.g., Aranguren et al. Transcription factor COUP-TFII is indispensable for venous and lymphatic development in zebrafish and Xenopus laevis. Biochemical and biophysical research communications 410, 121-126, 2011). To test whether Nr2f2 could directly bind the enhancer sequences, an in vitro gel electrophoretic mobility shift assay was performed. Incubation of murine NR2F2-GST protein with labeled probe from either the 125 bp mrc1a or 158 bp sele zebrafish enhancers led to DNA:protein complexes that were super-shifted upon addition of an NR2F2 antibody and could be outcompeted by an unlabeled competitor probe (see e.g., FIG. 10A-FIG. 10E).
(§2) The Nr2f2 fragment was cloned into the pGEX2TK™ vector to generate GST-tagged Nr2f2 and fidelity was verified by sequencing. The pGEX2TK-Nr2f2 protein plasmid was transformed into E. coli BL21 competent cells. Proteins were expressed and purified, and purified proteins were quantified against BSA. EMSAs were performed. Probes were generated by annealing 100 pmol of sense and antisense oligonucleotides, and 1-2 pmol of probe was used in each reaction. Gel shift reactions were conducted at 4° C. in 20% glycerol, 20 mM Tris (pH 8.0), 10 mM KCl, 1 mM DTT, 12.5 ng poly dI/C, 6.25 pmol of random, single-stranded oligonucleotides, BSA and the probe in the amount specified above. Samples involving the Nr2f2 protein were loaded on a 6% gel to resolve protein-DNA complexes. In reactions with cold competitors, 20x unlabeled probes were included in the reactions. Anti-NR2F2 antibody (R&D Biosystems™; cat # PP-H7147-00) was at the same amount of the Nr2f2 protein to obtain super-shifts.
(In general: A gel shift assay detects complexes by their altered migration in electrophoresis.)
On to B1, for which the binding result is reported as “binds”.
On the same count and under the same terms, the result for B2 reads “binds”; that for B3, “binds”.

Another data set concerns the target T1, NR2F2 (COUP-TFII). Put plainly: competition; 20x unlabeled mutant unable to outcompete wild-type probe in EMSA. As to conditions: tags: GST (pGEX2TK, E. coli BL21).
Excerpt: as §1, §2
With B4, the binding result was “no binding”.
Still for that read-out and setting: in the case of B5 it was “no binding”.
The same measure, in the same setting: the result for B6 reads “no binding”.
